The results in this text go back to US20110076682A1 (WISCONSIN ALUMNI RESEARCH FOUNDATION, published 2011).

For experiment [1], the target named is T1, VeA yeast two-hybrid fusion (veA ORF in pTLexA or pGAD424) (Aspergillus nidulans, UniProt C8VTV4 1-573).
T1 construct: also called pNJ04; pNJ05
T1 sequence: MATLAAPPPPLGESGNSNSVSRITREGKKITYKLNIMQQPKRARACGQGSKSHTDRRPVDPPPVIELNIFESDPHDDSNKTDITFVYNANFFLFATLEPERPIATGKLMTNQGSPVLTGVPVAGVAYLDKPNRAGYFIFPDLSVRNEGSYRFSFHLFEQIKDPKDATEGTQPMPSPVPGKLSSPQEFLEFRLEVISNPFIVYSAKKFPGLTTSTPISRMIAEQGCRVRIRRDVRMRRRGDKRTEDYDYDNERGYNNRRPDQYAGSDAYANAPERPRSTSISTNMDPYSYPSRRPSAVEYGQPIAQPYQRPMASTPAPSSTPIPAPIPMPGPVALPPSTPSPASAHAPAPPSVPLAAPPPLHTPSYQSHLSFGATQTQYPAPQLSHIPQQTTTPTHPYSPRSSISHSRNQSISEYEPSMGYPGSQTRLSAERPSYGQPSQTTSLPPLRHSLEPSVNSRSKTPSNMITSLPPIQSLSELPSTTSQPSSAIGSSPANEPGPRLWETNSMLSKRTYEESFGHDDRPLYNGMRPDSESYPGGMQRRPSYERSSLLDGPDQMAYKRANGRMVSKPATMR
Nature of the experiment: yeast two-hybrid.

Experiment [2] concerns the target T2, N-EYFP::VeA (Aspergillus nidulans, UniProt C8VTV4 1-573).
T2 construct: BiFC construct expressed in A. nidulans (pME3188, pME3189); also called enhanced yellow fluorescent protein fused to the N terminus of veA; not shown: N-terminal part of EYFP (n-eyfp)
T2 sequence: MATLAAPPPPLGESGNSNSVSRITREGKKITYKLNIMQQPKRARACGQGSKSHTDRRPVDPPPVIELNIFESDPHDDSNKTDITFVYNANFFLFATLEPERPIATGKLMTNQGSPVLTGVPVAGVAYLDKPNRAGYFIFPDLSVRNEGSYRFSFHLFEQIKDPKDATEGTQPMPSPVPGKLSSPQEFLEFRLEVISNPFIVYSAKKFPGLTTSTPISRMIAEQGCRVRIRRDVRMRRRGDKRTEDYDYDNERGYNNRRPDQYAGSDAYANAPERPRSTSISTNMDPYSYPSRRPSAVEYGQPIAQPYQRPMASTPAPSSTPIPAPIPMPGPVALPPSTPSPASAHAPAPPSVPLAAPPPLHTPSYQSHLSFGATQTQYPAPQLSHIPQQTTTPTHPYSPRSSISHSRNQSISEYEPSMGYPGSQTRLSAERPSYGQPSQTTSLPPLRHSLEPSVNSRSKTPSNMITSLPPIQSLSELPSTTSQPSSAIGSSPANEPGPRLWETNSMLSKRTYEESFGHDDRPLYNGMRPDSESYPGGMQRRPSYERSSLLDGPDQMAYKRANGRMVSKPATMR
Put plainly: bimolecular fluorescence complementation in living A. nidulans cells.

The target in experiment [3] is T3, VeA::TAP* (VeA tagged at its C terminus by TAP tag, veA::ctap*) (Aspergillus nidulans, UniProt C8VTV4 1-573).
T3 construct: 85 kDa on the immunoblot; also called tagged VeA; VeA::TAP* tag
T3 sequence: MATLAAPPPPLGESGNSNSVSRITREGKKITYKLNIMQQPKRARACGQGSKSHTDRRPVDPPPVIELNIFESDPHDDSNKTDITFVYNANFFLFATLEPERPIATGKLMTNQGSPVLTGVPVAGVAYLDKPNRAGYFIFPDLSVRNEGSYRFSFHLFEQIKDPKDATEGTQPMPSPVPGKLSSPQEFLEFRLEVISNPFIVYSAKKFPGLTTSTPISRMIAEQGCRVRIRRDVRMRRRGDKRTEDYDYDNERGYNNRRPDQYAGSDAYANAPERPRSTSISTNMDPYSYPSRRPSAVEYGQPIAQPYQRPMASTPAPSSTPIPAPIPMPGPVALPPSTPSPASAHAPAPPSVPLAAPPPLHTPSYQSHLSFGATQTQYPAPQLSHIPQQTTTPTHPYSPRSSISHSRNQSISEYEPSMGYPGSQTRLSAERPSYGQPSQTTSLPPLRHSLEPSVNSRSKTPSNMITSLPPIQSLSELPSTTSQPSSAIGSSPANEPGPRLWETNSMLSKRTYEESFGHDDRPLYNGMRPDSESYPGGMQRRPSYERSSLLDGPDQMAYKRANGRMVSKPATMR
Nature of the experiment: tandem affinity purification of veA::ctap* and mass spectrometry, dark.

The target in experiment [4] is T3, VeA::TAP* (VeA tagged at its C terminus …). Nature of the experiment: tandem affinity purification and mass spectrometry, dark.

B1: VelB yeast two-hybrid fusion (velB ORF in pTLexA or pGAD424) (other)
chain: MYAVEDRAHSGHHPPPLSMDRIPPPSTMYPSSAGPSAMVSPAGQPEPESLSTVHDGRIWSLQVVQQPIRARMCGFGDKDRRPITPPPCIRLIVKDAQTQKEVDINSLDSSFYVVMADLWNADGTHEVNLVKHSATSPSISTAMSSSYPPPPHPTSSDYPASYQTNPYGQPVGQPVGQPVGYAGVGNYYGGSTQLQYQNAYPNPQAQYYQPMYGGMAQPQMPAAQPVTPGPGGMFTRNLIGCLSASAYRLYDTEDKIGVWFVLQDLSVRTEGIFRLKFSFVNVGKSVSDLPQSDIAEVINKGTAPILASTFSEPFQVFSAKKFPGVIESTPLSKVFANQGIKIPIRKDGVKGQGSRGRHSDEDDGLDNEY
notes: also called pNJ20; pNJ23
Turning to B1, the binding result in experiment [1] is recorded as “binds”.

B2: C-EYFP::VelB (other)
chain: MYAVEDRAHSGHHPPPLSMDRIPPPSTMYPSSAGPSAMVSPAGQPEPESLSTVHDGRIWSLQVVQQPIRARMCGFGDKDRRPITPPPCIRLIVKDAQTQKEVDINSLDSSFYVVMADLWNADGTHEVNLVKHSATSPSISTAMSSSYPPPPHPTSSDYPASYQTNPYGQPVGQPVGQPVGYAGVGNYYGGSTQLQYQNAYPNPQAQYYQPMYGGMAQPQMPAAQPVTPGPGGMFTRNLIGCLSASAYRLYDTEDKIGVWFVLQDLSVRTEGIFRLKFSFVNVGKSVSDLPQSDIAEVINKGTAPILASTFSEPFQVFSAKKFPGVIESTPLSKVFANQGIKIPIRKDGVKGQGSRGRHSDEDDGLDNEY
notes: BiFC construct expressed in A. nidulans (pME3189, strain AGB388); not shown: C-terminal part of EYFP (c-eyfp)
For B2, in experiment [2], the binding result is “binds”.

B3: C-EYFP::LaeA (other)
chain: MFEMGPVGTRLPAMTSPAHNHYSYHSPTSSDRGRSRQNSDAMDIQSITEREPATRYAVAGGPAPWNRNGSPSMSPMYSNNSERNQFHEENGRTYHGFRRGMYFLPCDEQEQDRLDIFHKLFTVARVSESLIYAPHPTNGRFLDLGCGTGIWAIEVANKYPDAFVAGVDLAPIQPPNHPKNCEFYAPFDFEAPWAMGEDSWDLIHLQMGCGSVMGWPNLYRRIFAHLRPGAWFEQVEIDFEPRCDDRSLDGTALRHWYDCLKQATAETMRPIAHSSRDTIKDLQDAGFTEIDHQIVGLPLNPWHQDEHERKVARWYNLAVSESIENLSLAPFSRVYRWPLERIQQLAADVKSEAFNKEIHAYNILHIYQARKPLR
notes: BiFC construct expressed in A. nidulans (pME3188, strain AGB307); not shown: C-terminal part of EYFP (c-eyfp)
Consider B3, for which the binding result in experiment [2] is reported as “binds”.

B4: LaeA (other)
chain: MFEMGPVGTRLPAMTSPAHNHYSYHSPTSSDRGRSRQNSDAMDIQSITEREPATRYAVAGGPAPWNRNGSPSMSPMYSNNSERNQFHEENGRTYHGFRRGMYFLPCDEQEQDRLDIFHKLFTVARVSESLIYAPHPTNGRFLDLGCGTGIWAIEVANKYPDAFVAGVDLAPIQPPNHPKNCEFYAPFDFEAPWAMGEDSWDLIHLQMGCGSVMGWPNLYRRIFAHLRPGAWFEQVEIDFEPRCDDRSLDGTALRHWYDCLKQATAETMRPIAHSSRDTIKDLQDAGFTEIDHQIVGLPLNPWHQDEHERKVARWYNLAVSESIENLSLAPFSRVYRWPLERIQQLAADVKSEAFNKEIHAYNILHIYQARKPLR
notes: Endogenous untagged protein co-purified from A. nidulans extracts; also called regulator LaeA
For B4, the binding result in experiment [3] is on record as “binds”.

B5: regulator of sporogenesis VosA (other)
chain: MSAANYPDPSLPRPSTSDDFELIVRQNPNRARVAGGKEKERKPVDPPPIVQIRVREEGTYLAQHYLQSPYFFMSCSLYDAQEDAPASIPPSTALTGTLVSSLHRLKDVDNTDGGFFVWGDLSIKVEGDFRLKFSLFEMRKTDVVFLKSIVSERFTVSPPKSFPGMAESTFLSRSFADQGVKLRIRKEPRTLIKRTAPRPEEYPQAAIPRSPSDRTAMQIPGSSYPAPPYQPTSRDYSYYAPVKRQRTSVDYGARGMYDADGRMRQMETYPQTATLYGQPGGYPTPMMGYPSGHGGVPDYAMSYGLPPSAQVPQMQDPAAQSRSSQQATMQSLGMVNPPGTPTPDSARAMMQQAYPRPQYSASTAVLPPLQQSRNYPQGTNGATRGYYEQSPQATPILPSQPLGTSEAERYGVPPGHTGYDHTGSANGTPR
notes: Endogenous untagged protein co-purified from A. nidulans extracts
Regarding B5, in experiment [4], the binding result is “no binding”.
